From PMC8892516, “Intragenic suppressors unravel the role of the SCREAM ACT-like domain for bHLH partner selectivity in stomatal development” (Proceedings of the National Academy of Sciences of the …, 2022)

T1: GST-fused SCRMΔC (1-404) (Arabidopsis thaliana, UniProt Q9LSE2 1-404)
T1 construct: SCREAM (SCRM, ICE1), Arabidopsis thaliana, At3G26744, residues 1-404; GST kept for loading on anti-GST probes; also called GST SCRMΔC; SCRM1ΔC; source: E. coli BL21, purified (glutathione agarose resin); not shown: GST, N-terminal, kept
T1 sequence (looked up): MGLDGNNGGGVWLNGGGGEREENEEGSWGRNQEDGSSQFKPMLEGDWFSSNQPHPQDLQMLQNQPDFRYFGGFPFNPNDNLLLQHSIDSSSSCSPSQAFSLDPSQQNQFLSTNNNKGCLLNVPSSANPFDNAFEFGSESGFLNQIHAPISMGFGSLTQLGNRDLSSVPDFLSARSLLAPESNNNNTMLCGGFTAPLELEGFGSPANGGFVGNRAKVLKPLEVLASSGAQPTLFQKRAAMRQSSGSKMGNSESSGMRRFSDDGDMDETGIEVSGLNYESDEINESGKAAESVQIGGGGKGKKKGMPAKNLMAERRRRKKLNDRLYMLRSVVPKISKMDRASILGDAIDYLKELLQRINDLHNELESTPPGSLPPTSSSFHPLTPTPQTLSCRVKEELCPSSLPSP

T2: GST-fused SCRM (1-494) (Arabidopsis thaliana, UniProt Q9LSE2 1-494)
T2 construct: SCREAM (SCRM, ICE1), Arabidopsis thaliana, At3G26744, residues 1-494; GST kept for loading on anti-GST probes; also called GST SCRM; GST-tagged SCRM; source: E. coli BL21, purified (glutathione agarose resin); not shown: GST, N-terminal, kept
T2 sequence (looked up): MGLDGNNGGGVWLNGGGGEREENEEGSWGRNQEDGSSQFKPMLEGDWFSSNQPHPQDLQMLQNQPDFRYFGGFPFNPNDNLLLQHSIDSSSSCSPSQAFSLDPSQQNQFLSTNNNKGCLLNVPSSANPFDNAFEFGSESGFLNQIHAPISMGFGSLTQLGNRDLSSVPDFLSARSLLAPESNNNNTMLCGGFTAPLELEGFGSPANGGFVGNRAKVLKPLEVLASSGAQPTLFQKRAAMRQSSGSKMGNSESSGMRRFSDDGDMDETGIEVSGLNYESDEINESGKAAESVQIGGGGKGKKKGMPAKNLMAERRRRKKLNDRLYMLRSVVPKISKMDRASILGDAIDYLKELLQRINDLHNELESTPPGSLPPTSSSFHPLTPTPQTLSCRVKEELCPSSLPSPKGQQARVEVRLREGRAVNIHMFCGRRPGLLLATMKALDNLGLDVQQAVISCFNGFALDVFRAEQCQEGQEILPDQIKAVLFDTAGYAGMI

T3: SCRM (1-494), recombinant (Arabidopsis thaliana, UniProt Q9LSE2 1-494)
T3 construct: SCREAM (SCRM, ICE1), Arabidopsis thaliana, At3G26744, residues 1-494; the purification methods tell thrombin cleavage; source: E. coli BL21, purified (glutathione resin, thrombin, Superdex-200); not shown: GST, N-terminal, cleaved
T3 sequence (looked up): T2 sequence (looked up)

T4: SCRM ACTL (405-494) (Arabidopsis thaliana, UniProt Q9LSE2 405-494)
T4 construct: SCREAM (SCRM, ICE1), Arabidopsis thaliana, At3G26744, ACT-like domain, residues 405-494; also called SCRM ACTL domain; source: E. coli BL21, purified (glutathione resin, thrombin, Superdex-200); not shown: GST, N-terminal, cleaved
T4 sequence (looked up): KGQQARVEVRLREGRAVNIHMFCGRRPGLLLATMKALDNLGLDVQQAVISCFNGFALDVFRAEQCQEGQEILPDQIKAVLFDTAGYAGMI

B1: ΔNSPCH (98-364), recombinant (domain or fragment, Arabidopsis thaliana, UniProt Q700C7 98-364, looked up)
chain: GQQKMSHVTVERNRRKQMNEHLTVLRSLMPCFYVKRGDQASIIGGVVEYISELQQVLQSLEAKKQRKTYAEVLSPRVVPSPRPSPPVLSPRKPPLSPRINHHQIHHHLLLPPISPRTPQPTSPYRAIPPQLPLIPQPPLRSYSSLASCSSLGDPPPYSPASSSSSPSVSSNHESSVINELVANSKSALADVEVKFSGANVLLKTVSHKIPGQVMKIIAALEDLALEILQVNINTVDETMLNSFTIKIGIECQLSAEELAQQIQQTFC
notes: BLI and ITC name it only SPCH; ΔNSPCH (98-364) is the only long recombinant SPCH construct that the methods list; also called purified SPCH; source: E. coli BL21, purified (glutathione resin, thrombin, Superdex-200); not shown: GST, N-terminal, cleaved
B2: SCRMΔC (1-404), recombinant (domain or fragment, Arabidopsis thaliana, UniProt Q9LSE2 1-404, looked up)
chain: T1 sequence (looked up)
notes: SCREAM (SCRM, ICE1), Arabidopsis thaliana, At3G26744, residues 1-404; the purification methods tell thrombin cleavage; also called SCRM1ΔC; source: E. coli BL21, purified (glutathione resin, thrombin, Superdex-200); not shown: GST, N-terminal, cleaved
B3: MUTE (1-202), recombinant (natural protein, Arabidopsis thaliana, UniProt Q9M8K6 1-202, looked up)
chain: MSHIAVERNRRRQMNEHLKSLRSLTPCFYIKRGDQASIIGGVIEFIKELQQLVQVLESKKRRKTLNRPSFPYDHQTIEPSSLGAATTRVPFSRIENVMTTSTFKEVGACCNSPHANVEAKISGSNVVLRVVSRRIVGQLVKIISVLEKLSFQVLHLNISSMEETVLYFFVVKIGLECHLSLEELTLEVQKSFVSDEVIVSTN
notes: MUTE, Arabidopsis thaliana, residues 1-202; MUTE (1-202) was cloned both in pGEX-4T-1 (N-terminal GST, thrombin cleaved) and in pET28a (N-terminal His tag); also called purified MUTE; MUTE-HIS; source: E. coli BL21, purified (Ni-NTA, Superdex-200)
B4: MUTE-ACTL (114-202) (domain or fragment, Arabidopsis thaliana, UniProt Q9M8K6 114-202, looked up)
chain: HANVEAKISGSNVVLRVVSRRIVGQLVKIISVLEKLSFQVLHLNISSMEETVLYFFVVKIGLECHLSLEELTLEVQKSFVSDEVIVSTN
notes: MUTE, Arabidopsis thaliana, ACT-like domain, residues 114-202; source: E. coli BL21, purified (glutathione resin, thrombin, Superdex-200); not shown: GST, N-terminal, cleaved
B5: ΔNFAMA, recombinant (domain or fragment)
chain: ESQRMTHIAVERNRRKQMNEHLRVLRSLMPGSYVQRGDQASIIGGAIEFVRELEQLLQCLESQKRRRILGETGRDMTTTTTSSSSPITTVANQAQPLIITGNVTELEGGGGLREETAENKSCLADVEVKLLGFDAMIKILSRRRPGQLIKTIAALEDLHLSILHTNITTMEQTVLYSFNVKITSETRFTAEDIASSIQQIFSFIHANTNISGSSNLGNIVFT
modifications: Limits not printed. Start set by analogy with the printed ΔNSPCH 98-364, which starts one residue before its annotated bHLH (99); FAMA bHLH is 194-245. Runs to the native C-terminus, including the …

How the values were obtained:
GST-fused SCRMΔC (1-404) = molecular target: T1, GST-fused SCRMΔC (1-404); test: BLI; Octet Red96; anti-GST probes loaded with 500 nM GST-SCRM or GST-SCRMΔC; SPCH/MUTE/FAMA as analyte at 3.12-200 nM; 30 °C; 1x PBS with 0.02% Tween 20; no DNA; 1:1 model; settings: both partners purified
GST-fused SCRM (1-494) = molecular target: T2, GST-fused SCRM (1-494); test: as above; settings: both partners purified
[1] = molecular target: T3, SCRM (1-494), recombinant; test: ITC; Malvern PEAQ-ITC, 25 °C, PBS pH 7.4; 40 μM SCRM/SCRMΔC injected into 4 μM SPCH/MUTE/FAMA; single binding site model; settings: both partners purified
[2] = molecular target: B2; test: as above; settings: both partners purified
[3] = molecular target: B1; test: as above; settings: both partners purified
ΔNFAMA, recombinant = molecular target: B5; test: as above; settings: both partners purified
[4] = molecular target: GST-fused SCRMΔC (1-404) (Arabidopsis thaliana) (UniProt Q9LSE2); test: BLI; as a3, samples incubated for 30 min with a 1:4 molar ratio of the synthetic E-box DNA fragment
[5] = molecular target: GST-fused SCRMΔC (1-404) (Arabidopsis thaliana) (UniProt Q9LSE2); test: BLI; as a3, samples incubated for 30 min with a 1:4 molar ratio of the TMM promoter DNA fragment
SCRM ACTL (405-494) = molecular target: T4, SCRM ACTL (405-494); test: ITC; Malvern PEAQ-ITC, 25 °C, PBS pH 7.4; 150 μM SCRM ACTL/SCRM L484F ACTL injected into 15 μM SPCH ACTL/MUTE ACTL; settings: both partners purified

Row | Kd (GST-fused SCRMΔC (1-404)) [µM] | Kd (GST-fused SCRM (1-494)) [µM] | Kd [1] [µM] | Kd [2] [µM] | Binder | other results
1 | 0.068 ± 0.0055 | 0.0052 ± 0.0011 | 0.0065 ± 0.0016 | 0.061 ± 0.0042 | B1 | –
2 | – | – | – | – | B2 | stoichiometry N [3]: 1; stoichiometry N (ΔNFAMA, recombinant): 1
3 | – | 0.0073 ± 0.0015 | 0.0105 ± 0.0021 | – | B3 | Kd [4]: 0.545 µM; Kd [5]: 0.565 µM
4 | – | – | – | – | B4 | Kd (SCRM ACTL (405-494)): 5.1 µM
5 | 0.052 ± 0.0036 | 0.0082 ± 0.0021 | 0.0096 ± 0.0014 | 0.068 ± 0.0052 | B5 | –
